Experimental data: PMC8092224

Target: H. pylori-bullfrog recombinant ferritin (ferritin nanoparticle) (bullfrog (Rana catesbeiana) | Helicobacter pylori)
Test: SEC; concentrated supernatant (100-kDa MWCO TFF) on Superdex 200 Increase 10/300 GL, degassed PBS, 0.4 ml/min; size from LMW/HMW calibration standards; self-assembly of the monomer into the nanoparticle

H. pylori-bullfrog recombinant ferritin (ferritin nanoparticle)
stoichiometry N: 24
